Results from patent publication US20240336673A1 (WEST VIRGINIA UNIVERSITY BOARD OF GOVERNERS ON BEHALF OF …, published 2024).

How the values were obtained:
[1] = biological target: T1, purified recombinant FliC from P. aeruginosa (polyHis-tag FliC protein, gene from P. aeruginosa PAO1) (Pseudomonas aeruginosa PAO1, UniProt P72151 1-488); test: direct ELISA of hybridoma supernatant on coated recombinant FliC
T1 construct: also called P. aeruginosa flagellin; purified FliC protein from P. aeruginosa; not shown: polyhistidine tag
T1 sequence: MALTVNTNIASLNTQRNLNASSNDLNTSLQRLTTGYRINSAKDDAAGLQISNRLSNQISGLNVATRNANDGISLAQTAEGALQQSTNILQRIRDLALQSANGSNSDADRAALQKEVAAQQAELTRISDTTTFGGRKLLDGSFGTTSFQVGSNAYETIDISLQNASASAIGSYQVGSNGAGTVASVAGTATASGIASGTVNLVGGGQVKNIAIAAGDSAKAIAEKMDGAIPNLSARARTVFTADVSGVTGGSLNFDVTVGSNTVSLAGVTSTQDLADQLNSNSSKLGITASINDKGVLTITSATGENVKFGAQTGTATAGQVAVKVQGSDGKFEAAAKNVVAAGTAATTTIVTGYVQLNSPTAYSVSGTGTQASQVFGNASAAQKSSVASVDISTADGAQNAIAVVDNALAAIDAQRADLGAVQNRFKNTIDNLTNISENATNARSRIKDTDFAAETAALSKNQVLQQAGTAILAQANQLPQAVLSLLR

[2] = biological target: T2, FliC protein at the surface of P. aeruginosa PAO1 (Pseudomonas aeruginosa PAO1, UniProt P72151 1-488); test: direct ELISA of hybridoma supernatant on whole P. aeruginosa PAO1
T2 construct: whole, on cells; Native protein on whole bacteria or in lysates; also called P. aeruginosa PAO1 flagellin; type b flagellin
T2 sequence: T1 sequence

B1: WVDC-2109 (antibody, V domains shown)
VH: EVQLQESGAELVKPGASVKLSCKASGYTFTSYWMHWVKQRPGQGLEWIGMIRPNSGSTNYNEKFKSKATLTVDKSSSTAYMQLSSPTSEDSAVYYCARRGYGSSYGYYAMDYWGQGTSVTVSS
VL: DIVVTQTTSSLSASLGDRVTISCRASQDISNYLNWYQQKPDGTVKLLINYTSRLNSGVPSRFSGSGSGTDYSLTISNLEQEDIATYFCQQGNTLPWTFGGGTKLE
notes: also called anti-FliC mAb; mAb WVDC-2109
- binding result [1]: binds
- binding result [2]: binds
